Data taken from patent US7067474B1, “Agents for treating human illnesses based on β-catenin, and the production and use thereof” (Max-Delbruck-Centrum fur Molekulare Medizin, priority 1998, dated 2006).
Positions count from the first letter of the chain named. Values belong to the molecule of their own block, whether it stands above or below them. Where no end group is shown, it is not given here.

Tests used:
β-catenin/TCF-4 complex = experiment: ELISA with synthetic peptides: formation of the β-catenin/TCF-4 complex; assay type: binding; conditions: synthetic TCF4 peptides, analogous to LEF-1 peptides, which inhibit specifically
[1] = molecular target: human APC amino acids His1012-Glu1215 (APC 15 amino acid repeats) fused to Lex-A (vector BTM 116) (human); experiment: yeast 2-hybrid, β-galactosidase reporter; percent of wild type β-catenin
[2] = molecular target: human APC amino acids Ser1259-Asp1400 (APC 20 amino acid repeats) fused to Lex-A (vector BTM 116) (human); experiment: as above
β-catenin = molecular target: T1, β-catenin (Homo sapiens, UniProt P35222); experiment: yeast-2-hybrid system: interaction of LEF-1 fragments with β-catenin (β-galactosidase reporter activity); assay type: binding; conditions: LEF-1 fragments as Lex-A hybrids
T1 construct: expressed in transfected cells; host or cells: yeast (two-hybrid system, Clontech)
T1 sequence (P35222 1-781): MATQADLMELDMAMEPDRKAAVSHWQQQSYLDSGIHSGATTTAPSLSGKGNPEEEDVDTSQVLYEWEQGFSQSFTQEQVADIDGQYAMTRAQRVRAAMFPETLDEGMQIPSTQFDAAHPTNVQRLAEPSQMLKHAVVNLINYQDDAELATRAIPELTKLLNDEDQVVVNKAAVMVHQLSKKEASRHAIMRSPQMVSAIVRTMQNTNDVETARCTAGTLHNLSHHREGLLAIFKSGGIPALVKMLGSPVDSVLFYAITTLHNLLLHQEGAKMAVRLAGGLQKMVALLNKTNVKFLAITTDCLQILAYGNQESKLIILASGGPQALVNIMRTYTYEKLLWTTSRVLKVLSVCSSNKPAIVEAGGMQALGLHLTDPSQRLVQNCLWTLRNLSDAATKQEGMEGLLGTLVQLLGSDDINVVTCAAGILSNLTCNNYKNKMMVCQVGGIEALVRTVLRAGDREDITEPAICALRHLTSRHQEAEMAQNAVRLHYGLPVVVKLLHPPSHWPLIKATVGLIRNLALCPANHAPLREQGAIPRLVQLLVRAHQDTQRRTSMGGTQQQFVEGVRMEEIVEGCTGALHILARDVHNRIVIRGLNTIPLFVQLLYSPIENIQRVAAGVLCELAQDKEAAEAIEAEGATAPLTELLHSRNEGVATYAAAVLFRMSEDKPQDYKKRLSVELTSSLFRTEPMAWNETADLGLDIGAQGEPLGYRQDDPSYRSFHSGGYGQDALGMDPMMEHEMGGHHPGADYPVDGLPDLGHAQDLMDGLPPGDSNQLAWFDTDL
Description: The ‘yeast-2-hybrid system’ was used for identifying the minimum binding domain (FIG. 1). It was possible to limit the minimum binding domain to the N-terminal amino acids 11–27 of LEF-1 which corresponds t) the amino acids 7–29 in TCF-4 (FIG. 2). The interaction of N-terminal LEF-1 fragments with β-catenin was detected by means of activating a lacZ reporter gene (s. example).
The interaction between the partial domains of LEF-1 and β-catenin was analyzed in the yeast-2 hybrid system by determining the activity of β-galactosidase according to information of the producer (Clontech) (FIG. 1). For this purpose the DNA coding for the N-terminal partial domains of LEF-1 was inserted into the cloning site of the Lex-A DNA binding domain which contains vector BTM 116 and checked by sequencing. The DNA fragments of LEF-1 were prepared by a polymerase chain reaction (PCR) and incubation with restriction endonucleases. The DNA coding for β-catenin was cloned into the vector pGAD424 (Clontech) for the activation domain of GAL-4 (Behrens et al. 1996). The β-galactosidase activities of independent experiments were averaged (or comparing the interaction of the hybrids.
The specificity of the interaction of the LEF-1 hybrids with β-catenin was checked by means of the β-galactosidase activity of yeasts producing the LEF hybrids and the GAL-4 activation domain without β-catenin (FIG. 1). The expression of the LEF-1 hybrids was checked in an immunoblot with yeast cell lysates by antibodies (Clontech) as against the Lex-A domain of the hybrids. Equal yeast quantities were used for preparing the lysates after determining the optical density of the cultures.
The interaction of fragments of the binding domain of LEF-1 with β-catenin was analyzed by means of the β-galactosidase reporter activity in the yeast-2-hybrid system. […] Accordingly, the minimum binding domain of LEF-1 for β-catenin consists of 17 amino acids (11–27) showing an acidic character.

[3] = molecular target: E-cadherin amino acids Gln773-Asp884 (cytoplasmatic domain) fused to Lex-A (vector BTM 116) (UniProt P0A7C2 1-202; P09803 773-884); experiment: yeast 2-hybrid, β-galactosidase reporter; percent of wild type β-catenin
Description: (§1) 4. Preparation and testing of mutants of β-catenin modulating the interaction with LEF-1, APC, conductin or E-cadherin The mutagenesis of β-catenin in the armadillo repeats 3–8 was carried out by means of the "mutagenesis kit" of the company Clontech according to the producer's record and the mutants were checked by sequencing (FIG. 5). In all mutants the original amino acid was substituted by alanine. For analyzing the interactions the cDNA of human β-catenin (armadillo repeat 3 up to the C-terminal end of the protein) coding for the amino acids Leu218–Leu7 µl or its mutants was cloned into the fusion vector for the activation domain of Gal-4 (pGAD424, Clontech). The cDNA for the binding domains of the interaction partners was cloned into the Lex-A fusion vector BTM 116. To this end, the cDNA of LEF-1 for the amino acids 1–99, conductin for the amino acids Ala342–ARG465; of human APC for the amino acids His1012–Glu1215 (APC 15 amino acid repeats) and for the amino acids Ser1259Asp 1400 (APC 20 amino acid repeats) and E-cadherin for the amino acids Gin773–Asp884 (cytoplasmatic domain) were amplified with the respective primers PCR. The interaction of the Lex-A hybrids with β-catenin and its mutants was quantified by means of the β-galactosidase reporter activity in the yeast 2-hybrid system (report: "Matchmaker". Clontech) (Tab. 2 and FIG. 6).

[4] = molecular target: conductin amino acids Ala342-Arg465 fused to Lex-A (vector BTM 116) (UniProt P0A7C2); experiment: as above
[5] = molecular target: T2, LEF-1 amino acids 1-99 fused to Lex-A (vector BTM 116) (UniProt P0A7C2 1-202; P27782 1-99); experiment: as above
T2 construct: Order of the fusion follows the vector; also called LEF-1/TCF-4
Description: as §1

share of the interaction with wild type β-catenin in percent [1]: 59%
share of the interaction with wild type β-catenin in percent [2]: 0%
Molecule: human β-catenin (Leu218-Leu781) mutant Trp 383 to alanine, Gal-4 activation domain fusion (from UniProt P35222 218-781)

share of the interaction with wild type β-catenin in percent [5]: 38%
share of the interaction with wild type β-catenin in percent [3]: 27%
share of the interaction with wild type β-catenin in percent [4]: 22%
B3: human β-catenin (Leu218-Leu781) mutant Lys 345 to alanine, Gal-4 activation domain fusion (other, not shown: large carriers; small tags and cut ends)
chain: LHNLSHHREGLLAIFKSGGIPALVKMLGSPVDSVLFYAITTLHNLLLHQEGAKMAVRLAGGLQKMVALLNKTNVKFLAITTDCLQILAYGNQESKLIILASGGPQALVNIMRTYTYEKLLWTTSRVLAVLSVCSSNKPAIVEAGGMQALGLHLTDPSQRLVQNCLWTLRNLSDAATKQEGMEGLLGTLVQLLGSDDINVVTCAAGILSNLTCNNYKNKMMVCQVGGIEALVRTVLRAGDREDITEPAICALRHLTSRHQEAEMAQNAVRLHYGLPVVVKLLHPPSHWPLIKATVGLIRNLALCPANHAPLREQGAIPRLVQLLVRAHQDTQRRTSMGGTQQQFVEGVRMEEIVEGCTGALHILARDVHNRIVIRGLNTIPLFVQLLYSPIENIQRVAAGVLCELAQDKEAAEAIEAEGATAPLTELLHSRNEGVATYAAAVLFRMSEDKPQDYKKRLSVELTSSLFRTEPMAWNETADLGLDIGAQGEPLGYRQDDPSYRSFHSGGYGQDALGMDPMMEHEMGGHHPGADYPVDGLPDLGHAQDLMDGLPPGDSNQLAWFDTDL

share of the interaction with wild type β-catenin in percent [5]: 35%
share of the interaction with wild type β-catenin in percent [1]: 12%
share of the interaction with wild type β-catenin in percent [4]: 45%
B4: human β-catenin (Leu218-Leu781) mutant Arg 386 to alanine, Gal-4 activation domain fusion (other, not shown: large carriers; small tags and cut ends)
chain: B3 chain with A128K, R169A

share of the interaction with wild type β-catenin in percent [5]: 50%
share of the interaction with wild type β-catenin in percent [3]: 100%
share of the interaction with wild type β-catenin in percent [1]: 100%
share of the interaction with wild type β-catenin in percent [4]: 10%
share of the interaction with wild type β-catenin in percent [2]: 40%
B5: human β-catenin (Leu218-Leu781) mutant His 260 to alanine, Gal-4 activation domain fusion (other, not shown: large carriers; small tags and cut ends)
chain: B3 chain with H43A, A128K

share of the interaction with wild type β-catenin in percent [5]: 17%
share of the interaction with wild type β-catenin in percent [3]: 50%
B6: human β-catenin (Leu218-Leu781) mutant Arg 469 to alanine, Gal-4 activation domain fusion (other, not shown: large carriers; small tags and cut ends)
chain: B3 chain with A128K, R252A

share of the interaction with wild type β-catenin in percent [3]: 41%
share of the interaction with wild type β-catenin in percent [4]: 20%
share of the interaction with wild type β-catenin in percent [2]: 29%
B7: human β-catenin (Leu218-Leu781) mutant Arg 342 to alanine, Gal-4 activation domain fusion (other, not shown: large carriers; small tags and cut ends)
chain: B3 chain with R125A, A128K

share of the interaction with wild type β-catenin in percent [5]: 2%
share of the interaction with wild type β-catenin in percent [1]: 60%
share of the interaction with wild type β-catenin in percent [2]: 47%
B8: human β-catenin (Leu218-Leu781) mutant His 470 to alanine, Gal-4 activation domain fusion (other, not shown: large carriers; small tags and cut ends)
chain: B3 chain with A128K, H253A

share of the interaction with wild type β-catenin in percent [5]: 38%
share of the interaction with wild type β-catenin in percent [3]: 40%
share of the interaction with wild type β-catenin in percent [1]: 54%
share of the interaction with wild type β-catenin in percent [4]: 43%
B9: human β-catenin (Leu218-Leu781) mutant Lys 354 to alanine, Gal-4 activation domain fusion (other, not shown: large carriers; small tags and cut ends)
chain: B3 chain with A128K, K137A

Second part, the molecule before the results:

Molecule: GGDDLGANDELISFKDEGEQEEK [7–29]
inhibition of formation of the β-catenin/TCF-4 complex (β-catenin/TCF-4 complex): Analogous principles apply

Molecule: DLGANDELISFKDE [10–23]
inhibition of formation of the β-catenin/TCF-4 complex (β-catenin/TCF-4 complex): Analogous principles apply

Molecule: Met21 up to Val 56: partial domain of LEF-1 covering Met21 up to Val 56
Binding to β-catenin (β-galactosidase reporter activity) (β-catenin): does not show any binding activity

B1: 11–23: LEF-1 fragment amino acids 11–23, Lex-A hybrid (protein)
chain: MKALTARQQEVFDLIRDHISQTGMPPTRAEIAQRLGFRSPNAAEEHLKALARKGVIEIVSGASRGIRLLQEEEEGLPLVGRVAAGEPLLAQQHIEGHYQVDPSLFKPNADFLLRVSGMSMKDIGIMDGDLLAVHKTQDVRNGQVVVARIDDEVTVKRLKKQGNKVELLPENSEFKPIVVDLRQQSFTIEGLAVGVIRNGDWLGDPELCATDEMIP
Binding to β-catenin (β-galactosidase reporter activity) (β-catenin): prevent the interaction

B2: human β-catenin (Leu218-Leu781) mutant Arg 274 to alanine, Gal-4 activation domain fusion (other, not shown: large carriers; small tags and cut ends)
chain: B3 chain with R57A, A128K
share of the interaction with wild type β-catenin in percent [3]: 50%
share of the interaction with wild type β-catenin in percent [4]: 29%
share of the interaction with wild type β-catenin in percent [2]: 40%

B10: 17–34: LEF-1 fragment amino acids 17–34, Lex-A hybrid (protein)
chain: MKALTARQQEVFDLIRDHISQTGMPPTRAEIAQRLGFRSPNAAEEHLKALARKGVIEIVSGASRGIRLLQEEEEGLPLVGRVAAGEPLLAQQHIEGHYQVDPSLFKPNADFLLRVSGMSMKDIGIMDGDLLAVHKTQDVRNGQVVVARIDDEVTVKRLKKQGNKVELLPENSEFKPIVVDLRQQSFTIEGLAVGVIRNGDWLATDEMIPFKDEGDPQKEK
Binding to β-catenin (β-galactosidase reporter activity) (β-catenin): prevent the interaction

B11: 11–27: LEF-1 fragment amino acids 11–27, Lex-A hybrid; minimum binding domain for β-catenin (protein)
chain: MKALTARQQEVFDLIRDHISQTGMPPTRAEIAQRLGFRSPNAAEEHLKALARKGVIEIVSGASRGIRLLQEEEEGLPLVGRVAAGEPLLAQQHIEGHYQVDPSLFKPNADFLLRVSGMSMKDIGIMDGDLLAVHKTQDVRNGQVVVARIDDEVTVKRLKKQGNKVELLPENSEFKPIVVDLRQQSFTIEGLAVGVIRNGDWLGDPELCATDEMIPFKDE
Binding to β-catenin (β-galactosidase reporter activity) (β-catenin): does not result in a loss of bond
